This is an account of results in patent US10196454B2, “Anti-PMEL17 antibodies and immunoconjugates” (GENENTECH, INC., priority 2012, dated 2019).

Assay [1] concerns the target T1, human PMEL17 (Homo sapiens, UniProt P40967).
T1 construct: endogenous in cells; host or cells: SK-MEL-23, 1300mel, SKMEL5 (ATCC HTB-70), UACC257, normal melanocytes (Invitrogen); also PC3 stably expressing human PMEL17
T1 sequence (P40967 25-469): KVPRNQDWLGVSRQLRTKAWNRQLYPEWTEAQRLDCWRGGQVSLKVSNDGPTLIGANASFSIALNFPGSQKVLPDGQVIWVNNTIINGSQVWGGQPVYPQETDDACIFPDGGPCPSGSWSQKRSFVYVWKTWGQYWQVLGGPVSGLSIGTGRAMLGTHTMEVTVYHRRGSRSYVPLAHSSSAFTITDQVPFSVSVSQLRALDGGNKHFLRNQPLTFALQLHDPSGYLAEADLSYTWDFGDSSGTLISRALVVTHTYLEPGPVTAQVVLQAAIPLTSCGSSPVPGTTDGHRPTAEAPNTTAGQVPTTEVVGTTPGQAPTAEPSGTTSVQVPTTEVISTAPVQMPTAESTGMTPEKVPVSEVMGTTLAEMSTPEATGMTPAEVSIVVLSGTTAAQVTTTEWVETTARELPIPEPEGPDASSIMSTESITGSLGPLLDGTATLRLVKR
T1 sequence (P40967 470-661): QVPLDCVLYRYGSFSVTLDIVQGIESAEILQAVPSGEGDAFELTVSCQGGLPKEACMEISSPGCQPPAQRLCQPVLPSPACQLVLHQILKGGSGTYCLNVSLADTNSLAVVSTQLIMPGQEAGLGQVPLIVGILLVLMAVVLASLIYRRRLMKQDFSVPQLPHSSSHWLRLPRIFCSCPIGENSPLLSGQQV
Description: FACS screening of anti-PMEL17 hybridoma antibodies on live cells. It counts as binding. The following applies: live melanoma cells, normal human melanocytes, PC3 cell line stably expressing PMEL17 cDNA.

Assay [2] has as its system human PMEL17. The assay is described as above. It counts as binding. The following applies: parental PC3 cell line.
The next assay addresses T2, PMEL17 (Homo sapiens, UniProt P40967).
T2 sequence (P40967 25-661): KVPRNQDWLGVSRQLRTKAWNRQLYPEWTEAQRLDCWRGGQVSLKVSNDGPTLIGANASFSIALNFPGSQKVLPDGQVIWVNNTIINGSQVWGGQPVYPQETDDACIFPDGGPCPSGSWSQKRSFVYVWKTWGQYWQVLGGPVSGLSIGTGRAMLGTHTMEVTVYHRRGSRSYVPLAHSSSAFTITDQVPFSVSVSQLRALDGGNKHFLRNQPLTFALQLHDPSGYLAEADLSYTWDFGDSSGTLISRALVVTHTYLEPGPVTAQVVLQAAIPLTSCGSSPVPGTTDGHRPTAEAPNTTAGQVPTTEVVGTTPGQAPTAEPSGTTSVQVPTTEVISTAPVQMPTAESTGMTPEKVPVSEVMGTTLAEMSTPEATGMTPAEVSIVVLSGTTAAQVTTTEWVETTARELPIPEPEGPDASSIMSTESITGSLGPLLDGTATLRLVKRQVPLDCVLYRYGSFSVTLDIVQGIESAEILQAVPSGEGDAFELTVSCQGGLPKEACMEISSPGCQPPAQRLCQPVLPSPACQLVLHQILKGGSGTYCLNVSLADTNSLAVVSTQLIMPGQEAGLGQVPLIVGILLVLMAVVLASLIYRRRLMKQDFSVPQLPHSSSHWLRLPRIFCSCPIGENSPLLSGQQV
Description: Immunohistochemistry of human melanoma tissue specimens. On the set-up: The expression of PMEL17 was evaluated across a panel of human melanoma tissue specimines by immunohistochemistry; from tissue; host or cells: 58 human melanoma specimens (30 primary, 28 metastatic). Particulars: 58 specimens (30 primary, 28 metastatic). Here is the method:
To assess the potential liability of targeting PMEL17 on normal melanocytes, the level of expression of this target in normal human skin was evaluated by immunohistochemistry. Immunohistochemistry (IHC) was performed on 4 μm thick formalin-fixed paraffin embedded tissue sections mounted on glass slides. All IHC steps were carried out on the Ventana Discovery XT (Ventana Medical Systems; Tucson, Ariz.) autostainer. Pretreatment was done with Cell Conditioner 1, standard time. Primary antibody, PMEL17 clone 31D1 was used at a concentration of 10 μg/ml and was incubated on slides for 1 hour at 37° C. Ventana Mouse OmniMap (Ventana Medical Systems; AZ) was used as the detection system. […]
The expression of PMEL17 was evaluated across a panel of human melanoma tissue specimines by immunohistochemistry substantially as described above, using both 17A9 and 31D1. Staining was scored on an arbitrary scale ranging from zero, for absent, to 3+ for most intense: • 0 (negative): very weak or no staining in >90% of melanoma cells • 1+(mild): predominant staining pattern is weak • 2+(moderate): predominant staining pattern is moderately strong in the majority (>50%) of melanoma cells • 3+(strong): predominant staining pattern is strong in the majority (>50%) of melanoma cells Exemplary staining for each of the levels of the scale is shown in FIG. 7A, left panels.

In assay [3] the test system is human PMEL17. Put plainly: Monoclonal antibody epitope mapping with PMEL17 deletion mutants (immunoblot, FACS). It counts as binding. The following applies: N-terminal deletions by immunoblot, C-terminal deletions in 293 cells by FACS. Here is the method:
All the constructs for epitope mapping were made by PCR amplification of each fragment and subcloning into either pRKtkneo vector with an N-terminal gD tag, or pRKtkneo vector with an N-terminal gD tag and a C-terminal GPI anchor. Transfections were performed using FuGene 6 (Roche Applied Science), and empty vector was used as control. Full-length human PMEL17 was subcloned into pRKtkneo vector with an N-terminal gD tag.
A signal sequence and a gD epitope tag were fused to the N-terminal sequence of a series of deletion mutants, which were then expressed in mammalian cells and the lysates analyzed by immuoblotting for reactivity with 17A9 or 77E6. The N-terminal deletions tested included Δ100, Δ255, Δ292, Δ315, Δ444, Δ515, and Δ567.
In addition, C-terminal deletions with an N-terminal gD tag and a C-terminal GPI anchor were transiently transfected into 293 cells and analyzed for antibody binding by FACS. The C-terminal deletions tested included PMEL1725-125, PMEL1725-105, PMEL1725-85, PMEL1725-65, and PMEL1725-45. Finally, a PMEL17 fragment comprising the region from amino acid 515 through the transmembrane domain, but lacking the cytoplasmic region (“Δ515-C”) and a PMEL17 fragment comprising just the cytoplasmic domain with an N-terminal gD tag and a C-terminal GPI anchor were analyzed by immuoblotting for reactivity with 77E6.
A general note: A western blot detects proteins with antibodies after separation by electrophoresis.

The subject of a further assay is normal human melanocytes. Description: Flow cytometry of normal human melanocytes and SK-MEL-5 cells. It counts as binding. The following applies: intensity comparable to SK-MEL-5. The source says: Normal human melanocytes and SK-MEL-5 melanoma cells were reacted with chimeric 17A9, or no primary antibody, followed by Alexa 488-labeled anti-human IgG and analyzed by flow cytometry.
Background: A flow cytometer gives signals particle by particle.

B1: 17A9 (antibody, listed as Mus musculus, V domains shown)
VH: EVQLQQSGPELVKPGASMKISCKSSGYSFTRYTMNWVKQSHGKNLEWIGVINPYNGGTVYNQKFKGKATLTVDKSSSTAYMELLSLTSEDSAVYYCARTDYDGYAMDYWGQGTSVTVSS
VL: DVQITQSPSYLAASPGETITINCRATKSISKYLAWYQEQPGKTNNLLIYSGSTLQSGIPSRFSGSGSGTDFTLTISSLEPEDFAMYYCQQHNEYPYTFGSGTKLEIK
With B1, the “FACS reactivity with live cells expressing PMEL17” value with human PMEL17 [1] is recorded as “reacted strongly”. The “FACS reactivity with parental PC3 cell line” value with human PMEL17 [2] is “not the parental PC3 cell line”. For the same molecule, the “human melanoma specimens PMEL17+ when detected with the antibody” value with PMEL17 is on record as 64%. For the same molecule, the “binding to PMEL17 deletion mutants” value with human PMEL17 [3] was “bound only to PMEL1725-125”; in the assay with human PMEL17 [3] (listed as 17A6) it was “bound only to full-length PMEL17”. Further, the “FACS staining of cultured normal human melanocytes” value with normal human melanocytes is reported as “FACS+”.
